We go through four molecules from paper PMC7619206, “Human mitochondrial glutathione transferases: Kinetic parameters and accommodation of a mitochondria-targeting group in substrates” (Bioorganic & medicinal chemistry, 2024).

Usually kcat stands for the maximal rate divided by the concentration of active sites.

For one series, the target named is T1, hGSTA4-4 (Homo sapiens, UniProt O15217).
T1 construct: gene GSTA4
T1 sequence (O15217 1-222): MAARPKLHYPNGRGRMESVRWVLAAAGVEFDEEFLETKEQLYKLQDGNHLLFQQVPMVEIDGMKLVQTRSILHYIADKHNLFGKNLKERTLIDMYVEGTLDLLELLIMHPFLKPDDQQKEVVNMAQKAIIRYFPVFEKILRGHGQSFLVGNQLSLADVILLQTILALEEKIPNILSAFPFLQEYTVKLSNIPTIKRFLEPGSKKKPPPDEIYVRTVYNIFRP
Briefly: UV/Vis initial rates of GS-conjugate formation, Michaelis-Menten fit. The following applies: read-out: hGSTA4-4; 10 mM GSH, 0.1 M HEPES pH 8.0, 30 °C.

The target of another series is T2, hGSTK1-1 (Homo sapiens, UniProt Q9Y2Q3).
T2 construct: gene GSTK1
T2 sequence (Q9Y2Q3 1-226): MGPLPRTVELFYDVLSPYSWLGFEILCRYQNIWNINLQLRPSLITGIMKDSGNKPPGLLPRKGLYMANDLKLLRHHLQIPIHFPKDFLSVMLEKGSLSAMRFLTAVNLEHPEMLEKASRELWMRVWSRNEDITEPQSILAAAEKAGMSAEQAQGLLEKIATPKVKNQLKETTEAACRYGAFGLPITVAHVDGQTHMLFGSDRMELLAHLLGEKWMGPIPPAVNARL
The description is as above. The following applies: read-out: hGSTK1-1; 10 mM GSH, 0.1 M HEPES pH 8.0, 30 °C.

Another series has as its target T3, hGSTA1-1 (Homo sapiens, UniProt P08263).
T3 construct: gene GSTA1
T3 sequence (P08263 1-222): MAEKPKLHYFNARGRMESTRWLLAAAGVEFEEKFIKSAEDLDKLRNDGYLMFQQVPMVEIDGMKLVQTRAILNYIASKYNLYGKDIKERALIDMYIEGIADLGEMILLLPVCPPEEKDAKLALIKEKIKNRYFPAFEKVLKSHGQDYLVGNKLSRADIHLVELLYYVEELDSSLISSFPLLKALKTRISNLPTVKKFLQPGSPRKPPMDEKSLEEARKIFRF
The series is described as above. The following applies: read-out: KM (mM) / hGSTA1-1; 10 mM GSH, 0.1 M HEPES pH 8.0, 30 °C.

Substrate in series [1]: O=C(NCCCCC[P+](c1ccccc1)(c1ccccc1)c1ccccc1)c1cc([N+](=O)[O-])ccc1Cl
Briefly: purified protein. The following applies: 10 mM GSH, 0.1 M HEPES pH 8.0, 30 °C.

Substrate in series [2]: O=[N+]([O-])c1cc([N+](=O)[O-])c(NCCCC[P+](c2ccccc2)(c2ccccc2)c2ccccc2)cc1Cl
The series can be described thus: purified protein. The following applies: 10 mM GSH, 0.1 M HEPES pH 8.0, 30 °C.

Substrate in series [3]: O=C(NCCCCC[P+](c1ccccc1)(c1ccccc1)c1ccccc1)c1ccc(Cl)c([N+](=O)[O-])c1
The series can be described thus: purified protein. The following applies: 10 mM GSH, 0.1 M HEPES pH 8.0, 30 °C.

Substrate in series [4]: COC(=O)c1cc([N+](=O)[O-])ccc1Cl
The series can be described thus: UV/Vis initial rates of GS-conjugate formation, Lineweaver-Burk fit. It counts as biochemical, Homo sapiens. The following applies: 10 mM GSH, 0.1 M HEPES pH 8.0, 30 °C. The source says: (§1) UV/Vis initial rates of GS-conjugate formation, Lineweaver-Burk fit on hGSTA1-1

Substrate in series [5]: COC(=O)c1ccc(Cl)c([N+](=O)[O-])c1
Described as above. It counts as biochemical, Homo sapiens. The following applies: 10 mM GSH, 0.1 M HEPES pH 8.0, 30 °C.
Description: as §1

Substrate in series [6]: COC(=O)c1cc([N+](=O)[O-])ccc1Cl
The series is described as above. It counts as biochemical, Homo sapiens. The following applies: 10 mM GSH, 0.1 M HEPES pH 8.0, 30 °C. The source says: (§2) UV/Vis initial rates of GS-conjugate formation, Lineweaver-Burk fit on hGSTA4-4
This is another data set of the same source.

Substrate in series [7]: COC(=O)c1ccc(Cl)c([N+](=O)[O-])c1
The series is described as above. The following applies: 10 mM GSH, 0.1 M HEPES pH 8.0, 30 °C. It counts as biochemical, Homo sapiens.
Description: as §2
This is another data set of the same source.

Substrate in series [8]: COC(=O)c1cc([N+](=O)[O-])ccc1Cl
The series is described as above. It counts as biochemical, Homo sapiens. The following applies: 10 mM GSH, 0.1 M HEPES pH 8.0, 30 °C. The source says: (§3) UV/Vis initial rates of GS-conjugate formation, Lineweaver-Burk fit on hGSTK1-1
This is another data set of the same source.

Substrate in series [9]: COC(=O)c1ccc(Cl)c([N+](=O)[O-])c1
The description is as above. It counts as biochemical, Homo sapiens. The following applies: 10 mM GSH, 0.1 M HEPES pH 8.0, 30 °C.
Description: as §3
The source holds these as a separate data set.

Take `O=[N+]([O-])c1ccc(Cl)c([N+](=O)[O-])c1` [compound 1, 1-chloro-2,4-dinitrobenzene]: the Km was determined as 253 ± 52 µM on hGSTA4-4, 1900 ± 320 µM on hGSTK1-1 and 0.128 ± 0.018 mM at hGSTA1-1.

B1: hGSTA1-1 (Homo sapiens) (protein)
chain: MAEKPKLHYFNARGRMESTRWLLAAAGVEFEEKFIKSAEDLDKLRNDGYLMFQQVPMVEIDGMKLVQTRAILNYIASKYNLYGKDIKERALIDMYIEGIADLGEMILLLPVCPPEEKDAKLALIKEKIKNRYFPAFEKVLKSHGQDYLVGNKLSRADIHLVELLYYVEELDSSLISSFPLLKALKTRISNLPTVKKFLQPGSPRKPPMDEKSLEEARKIFRF
notes: N-terminal 6xHis tag and TEV site (pNIC-28-BsaI), not cleaved; E. coli BL21(DE3), codon-optimised synthetic gene; Ni-NTA
Take B1: the Km in “purified protein [1]” is 720 ± 17 µM; in the series “purified protein [2]”, 146 ± 20 µM; in “purified protein [3]”, 441 ± 10 µM; in series [4], 1670 ± 50 µM; in [5], 2050 ± 770 µM. Moreover, the kcat entry is “(4.67 ± 0.19) x 10^-2 s^-1” in the series “purified protein [1]”; 14.7 ± 0.6 s⁻¹ in the series “purified protein [2]”; 9.50 ± 0.45 s⁻¹ in the series “purified protein [3]”; 2.31 ± 0.55 s⁻¹ in [4]; 8.85 ± 2.79 s⁻¹ in [5].

B2: hGSTA4-4 (Homo sapiens) (protein)
chain: MAARPKLHYPNGRGRMESVRWVLAAAGVEFDEEFLETKEQLYKLQDGNHLLFQQVPMVEIDGMKLVQTRSILHYIADKHNLFGKNLKERTLIDMYVEGTLDLLELLIMHPFLKPDDQQKEVVNMAQKAIIRYFPVFEKILRGHGQSFLVGNQLSLADVILLQTILALEEKIPNILSAFPFLQEYTVKLSNIPTIKRFLEPGSKKKPPPDEIYVRTVYNIFRP
notes: as for B1
As to B2, the Km in “purified protein [2]” turned out to be 142 ± 9 µM; in “purified protein [3]”, 826 ± 5 µM; in [6], 949 ± 27 µM; in [7] it was 3580 ± 90 µM. Also, the kcat in “purified protein [2]” was 4.59 ± 0.08 s⁻¹; in the series “purified protein [3]” it was 2.13 ± 0.05 s⁻¹; in [6] it was “(5.61 ± 0.37) x 10^-2 s^-1”; in series [7] it was 0.521 ± 0.203 s⁻¹.

B3: hGSTK1-1 (Homo sapiens) (protein)
chain: MGPLPRTVELFYDVLSPYSWLGFEILCRYQNIWNINLQLRPSLITGIMKDSGNKPPGLLPRKGLYMANDLKLLRHHLQIPIHFPKDFLSVMLEKGSLSAMRFLTAVNLEHPEMLEKASRELWMRVWSRNEDITEPQSILAAAEKAGMSAEQAQGLLEKIATPKVKNQLKETTEAACRYGAFGLPITVAHVDGQTHMLFGSDRMELLAHLLGEKWMGPIPPAVNARL
notes: as for B1
On to B3, for which the Km in series [8] came to 1540 ± 30 µM; in [9], 301 ± 8 µM; in the series “purified protein [2]”, 360 ± 67 µM. Also, the values for the kcat result (in series [8]; in series [9]; in the series “purified protein [2]”) were “(9.45 ± 0.68) x 10^-2 s^-1”, 0.106 ± 0.008 s⁻¹ and 0.103 ± 0.008 s⁻¹, respectively.
